Where “and” joins values, the source holds several entries; their conditions need not be identical. Equal entries are not always repeated.
How the values were obtained:
[1] = target: T1, mouse tumor necrosis factor (TNF) (Mus musculus C57Bl/6, UniProt P06804); assay: flow cytometry on cells; intracellular cytokine staining (BD fixation and permeabilisation kit with GolgiPlug) of BMDM activated by LPS (100 ng/mL, 4 h) in the presence of brefeldin A; Fc-gamma receptor blocked; cells gated on F4/80; Katushka fluorescence read; details: one partner purified
T1 construct: tumor necrosis factor, mouse; stained inside fixed and permeabilised cells kept with brefeldin A; also called mouse TNF; murine TNF

[2] = target: T2, human tumor necrosis factor (TNF) (Homo sapiens (huTNFKI mouse BMDM), UniProt P01375); assay: as above; details: one partner purified
T2 construct: tumor necrosis factor, human, expressed in place of murine TNF in huTNFKI mice; stained inside fixed and permeabilised cells kept with brefeldin A; in the in vivo rows the hTNF of the knock-in mice; also called hTNF; human TNF

[3] = target: fluorescent-binding TNF nanobody (BTN-Kat) (Bactrian camel); assay: SEC; Superose 6, 5 mg/mL protein, 20 mM NaPi pH 7.4, 150 mM NaCl, 0.5 mL/min; apparent molecular mass from calibration with standard proteins

T2 sequence (P01375 whole entry): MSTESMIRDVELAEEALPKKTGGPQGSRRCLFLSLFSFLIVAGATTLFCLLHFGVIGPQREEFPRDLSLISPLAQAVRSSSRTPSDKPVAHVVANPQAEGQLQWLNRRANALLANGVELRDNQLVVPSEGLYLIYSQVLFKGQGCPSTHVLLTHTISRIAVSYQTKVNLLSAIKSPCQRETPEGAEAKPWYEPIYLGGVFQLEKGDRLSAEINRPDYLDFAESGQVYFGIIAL
T1 sequence (P06804 whole entry): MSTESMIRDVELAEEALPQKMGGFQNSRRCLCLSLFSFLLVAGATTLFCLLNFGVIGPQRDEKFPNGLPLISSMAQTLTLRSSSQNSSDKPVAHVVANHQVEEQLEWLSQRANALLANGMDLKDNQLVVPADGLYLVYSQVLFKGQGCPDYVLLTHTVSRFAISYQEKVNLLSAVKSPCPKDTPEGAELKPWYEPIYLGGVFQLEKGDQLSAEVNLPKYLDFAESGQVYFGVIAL

- stoichiometry N [3]: 2 and 3
B1: fluorescent-binding TNF nanobody (BTN-Kat) (VHH)
VHH: QVQLVESGGGSVQAGGSLRLSCAASGSTNSELCMAWFREVPGKEREVVALVNSDGRTIYGEAVKGRFTMSKDNAKNTLYLQMNSLKAEDTAMYYCAAGPGFFGRCNYNSVGQGTQVTVSS
notes: flexible glycine-serine linker; far-red fluorescent protein Katushka (TurboFP635); A mixture of oligomeric forms was used in all experiments; Expression and purification are in Method S1; also called VHH41 fused to Katushka; source: E. coli (BL21(DE3) is named in the title of Result S1), purified
- binding result [1]: binds
- binding result [2]: binds

Reference: publication PMC6698962 (Antibodies, 2018)
